According to patent US20240279318A1 (NANJING LEGEND BIOTECH, published 2024):
Substitutions are numbered along the chain they refer to.

B1: AS170036 VL1VH1-57M98I108S (scFv)
scFv: QSALTQPRSVSGSPGQSVTISCAGTSSDVGSENYVSWYQQHPGKAPKLMIYQVNKRASGVPDRFSGSKSGNTASLTISGLQAEDEADYYCASYRSSDINIVFGGGTKLTVLGGGGSGGGGSGGGGSEVQLVESGGGLVQPGGSLRLSCAASGFTFSSYAMSWVRQAPGKGLEWVSTINSGTGMPYYADSVKGRFTISRDNSKNTLYLQMNSLRAEDTAVYYCAKNFFDGSWFLSPPAMDYWGQGTLVTVSSHHHHHH
notes: also called 81-AS170036 VL1VH1-57M98I108S
B2: AS170036 VL1VH1 HG56A (scFv)
scFv: B1 scFv with I98H, G182A, M183S, S234G
B3: AS170036 VL1VH1 HG108W (scFv)
scFv: B1 scFv with I98H, M183S, S234W
B4: AS170036 VL1VH1 HF106W (scFv)
scFv: B1 scFv with I98H, M183S, F232W, S234G
B5: AS170036 VL1VH1 HG56E (scFv)
scFv: B1 scFv with I98H, G182E, M183S, S234G
B6: AS170036 VL1VH1 HF101W (scFv)
scFv: B1 scFv with I98H, M183S, F227W, S234G
B7: AS170036 VL1VH1 HF101Y (scFv)
scFv: B1 scFv with I98H, M183S, F227Y, S234G
B8: AS170036 VL1VH1 HF101N (scFv)
scFv: B1 scFv with I98H, M183S, F227N, S234G
B9: AS170036 VL1VH1 HD102W (scFv)
scFv: B1 scFv with I98H, M183S, D228W, S234G
B10: AS170036 VL1VH1 HG56H (scFv)
scFv: B1 scFv with I98H, G182H, M183S, S234G
B11: AS170036 VL1VH1 HG56R (scFv)
scFv: B1 scFv with I98H, G182R, M183S, S234G
B12: AS170036 VL1VH1 HD102V (scFv)
scFv: B1 scFv with I98H, M183S, D228V, S234G
B13: AS170036 VL1VH1 HL107G (scFv)
scFv: B1 scFv with I98H, M183S, L233G, S234G
B14: AS170036 VL1VH1 HD102P (scFv)
scFv: B1 scFv with I98H, M183S, D228P, S234G
B15: AS170036 VL1VH1 HD102A (scFv)
scFv: B1 scFv with I98H, M183S, D228A, S234G
B16: AS170036 VL1VH1 HG56K (scFv)
scFv: B1 scFv with I98H, G182K, M183S, S234G
B17: AS170036 VL1VH1 HG108R (scFv)
scFv: B1 scFv with I98H, M183S, S234R
B18: AS170036 VL1VH1 HG56V (scFv)
scFv: B1 scFv with I98H, G182V, M183S, S234G
B19: AS170036 VL1VH1 HG56S (scFv)
scFv: B1 scFv with I98H, G182S, M183S, S234G
B20: AS170036 VL1VH1 HG56T (scFv)
scFv: B1 scFv with I98H, G182T, M183S, S234G
B21: AS170036 VL1VH1 HD102M (scFv)
scFv: B1 scFv with I98H, M183S, D228M, S234G
B22: AS170036 VL1VH1 HL107I (scFv)
scFv: B1 scFv with I98H, M183S, L233I, S234G
B23: AS170036 VL1VH1 HD102T (scFv)
scFv: B1 scFv with I98H, M183S, D228T, S234G
B24: AS170036 VL1VH1 HD102I (scFv)
scFv: B1 scFv with I98H, M183S, D228I, S234G
B25: AS170036 VL1VH1 HD102S (scFv)
scFv: B1 scFv with I98H, M183S, D228S, S234G
B26: AS170036 VL1VH1 HG108L (scFv)
scFv: B1 scFv with I98H, M183S, S234L
B27: AS170036 VL1VH1 HG56D (scFv)
scFv: B1 scFv with I98H, G182D, M183S, S234G
B28: AS170036 VL1VH1 HD102E (scFv)
scFv: B1 scFv with I98H, M183S, D228E, S234G
B29: AS170036 VL1VH1 HG56M (scFv)
scFv: B1 scFv with I98H, G182M, M183S, S234G
B30: AS170036 VL1VH1 HG56P (scFv)
scFv: B1 scFv with I98H, G182P, M183S, S234G
B31: AS170036 VL1VH1 HF101H (scFv)
scFv: B1 scFv with I98H, M183S, F227H, S234G
B32: AS170036 VL1VH1 HG108V (scFv)
scFv: B1 scFv with I98H, M183S, S234V
B33: AS170036 VL1VH1 HD102G (scFv)
scFv: B1 scFv with I98H, M183S, D228G, S234G
B34: AS170036 VL1VH1 HL107M (scFv)
scFv: B1 scFv with I98H, M183S, L233M, S234G
B35: AS170036 VL1VH1 HG108Y (scFv)
scFv: B1 scFv with I98H, M183S, S234Y
B36: AS170036 VL1VH1 HG56I (scFv)
scFv: B1 scFv with I98H, G182I, M183S, S234G
B37: AS170036 VL1VH1 HD102N (scFv)
scFv: B1 scFv with I98H, M183S, D228N, S234G
B38: AS170036 VL1VH1 HD102L (scFv)
scFv: B1 scFv with I98H, M183S, D228L, S234G
B39: AS170036 VL1VH1 HL107A (scFv)
scFv: B1 scFv with I98H, M183S, L233A, S234G
B40: AS170036 VL1VH1 HG108T (scFv)
scFv: B1 scFv with I98H, M183S, S234T
B41: AS170036 VL1VH1 HG56Q (scFv)
scFv: B1 scFv with I98H, G182Q, M183S, S234G
B42: AS170036 VL1VH1 HG108F (scFv)
scFv: B1 scFv with I98H, M183S, S234F
B43: AS170036 VL1VH1 HL107N (scFv)
scFv: B1 scFv with I98H, M183S, L233N, S234G
B44: AS170036 VL1VH1 HG108H (scFv)
scFv: B1 scFv with I98H, M183S, S234H
B45: AS170036 VL1VH1 HG56L (scFv)
scFv: B1 scFv with I98H, G182L, M183S, S234G
B46: AS170036 VL1VH1 HG108I (scFv)
scFv: B1 scFv with I98H, M183S, S234I
B47: AS170036 VL1VH1 HG108Q (scFv)
scFv: B1 scFv with I98H, M183S, S234Q
B48: AS170036 VL1VH1 HF101D (scFv)
scFv: B1 scFv with I98H, M183S, F227D, S234G
B49: AS170036 VL1VH1 HD102Q (scFv)
scFv: B1 scFv with I98H, M183S, D228Q, S234G
B50: AS170036 VL1VH1 HG56W (scFv)
scFv: B1 scFv with I98H, G182W, M183S, S234G

These binders were tested against T1, AFP158/HLA-A*02:01 complex (human) (assay: SPR, crude scFv captured, pMHC analyte;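 note: complex injected at several concentrations over the chip, association phase then running buffer for dissociation, KD derived from on- and off-rates computed from both curves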).
T1 construct: flowed as analyte in SPR

Binder	Kd	koff	kon
B1	21 nM	0.0035 s⁻¹	170000 M⁻¹ s⁻¹

These binders were tested against T2, AFP158/HLA-A*02:01 complex (human) (assay: SPR; vs AS170036 VL1VH1;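 note: crude scFv captured on sensor chip, peptide–HLA complex flowed over at several concentrations, KD estimated from association and dissociation kinetic rates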).
T2 construct: biotinylated on the BSP by BirA for ELISA and panning; also called biotinylated AFP158/HLA-A*02:01 complex; Bio-AFP158

Binder	Affinity increase
B2	1.4 fold
B3	0.1 fold
B4	0.4 fold
B5	1 fold
B6	0.8 fold
B7	1.1 fold
B8	0.1 fold
B9	0.1 fold
B10	1.5 fold
B11	0.8 fold
B12	0.1 fold
B13	0.1 fold
B14	0.3 fold
B15	0.4 fold
B16	0.7 fold
B17	0.2 fold
B18	0.4 fold
B19	1.5 fold
B20	0.7 fold
B21	0.3 fold
B22	1.1 fold
B23	0.1 fold
B24	0.1 fold
B25	0.4 fold
B26	1.4 fold

Binder	Affinity increase
B27	1 fold
B28	1.2 fold
B29	1.7 fold
B30	0.1 fold
B31	0.3 fold
B32	0.7 fold
B33	0.1 fold
B34	0.7 fold
B35	0.2 fold
B36	0.2 fold
B37	0.1 fold
B38	0.1 fold
B39	0.1 fold
B40	0.5 fold
B41	1 fold
B42	0.3 fold
B43	0.5 fold
B44	0.4 fold
B45	0.8 fold
B46	0.2 fold
B47	1.4 fold
B48	0.2 fold
B49	0.2 fold
B50	1.7 fold

What follows are binders tested against T2, AFP158/HLA-A*02:01 complex (assay: SPR, crude scFv captured;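 note: Peptide–MHC complex flowed at several concentrations over sensorchip-captured scFv, Kd derived from on- and off-rates obtained from the association and dissociation curves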).

Binder	Kd
B2	160 nM
B3	2300 nM
B4	630 nM
B5	240 nM
B6	300 nM
B7	210 nM
B8	3700 nM
B9	2200 nM
B10	150 nM
B11	300 nM
B12	1800 nM
B13	4400 nM
B14	880 nM
B15	590 nM
B16	350 nM
B17	1500 nM
B18	630 nM
B19	160 nM
B20	340 nM
B21	840 nM
B22	240 nM
B23	1800 nM
B24	1900 nM
B25	520 nM
B26	200 nM

Binder	Kd
B27	230 nM
B28	190 nM
B29	130 nM
B30	1600 nM
B31	830 nM
B32	370 nM
B33	2500 nM
B34	370 nM
B35	1100 nM
B36	1100 nM
B37	2500 nM
B38	1700 nM
B39	3300 nM
B40	530 nM
B41	240 nM
B42	810 nM
B43	530 nM
B44	660 nM
B45	290 nM
B46	1000 nM
B47	200 nM
B48	1400 nM
B49	950 nM
B50	130 nM
